{"source": "the supplement of paper PMC10567573", "proteins": {"B1": {"name": "TOR1AIP2 WT (peptide)", "chain": "HHVADAYTSSQKVSPIQIDGAGRT"}, "B2": {"name": "RAD54B WT (peptide)", "chain": "YVQEKRDGLKRRQQLEEELLRAKI"}, "B3": {"name": "CDC14A WT (peptide)", "chain": "GPHPKSKIENGYPLHAPEAYFPYF"}, "B4": {"name": "TRIM63 WT (peptide)", "chain": "ANPYWTSRGSSVSMSGGRFRCPTC"}, "B5": {"name": "POLD4 WT (peptide)", "chain": "ITDSYPVVKRREGPAGHSKGELAP"}, "B6": {"name": "TOR1AIP2 WT (peptide)", "chain": "YKYCDHENAAFKDVALVLTVLLEE"}, "B7": {"name": "TRIM63 WT (peptide)", "chain": "FRCPTCRHEVIMDRHGVYGLQRNL"}, "B8": {"name": "KLHL14 WT (peptide)", "chain": "YVIGGRNETGYLSSVECYNLETNE"}, "B9": {"name": "TOR1AIP2 WT (peptide)", "chain": "YTSSQKVSPIQIDGAGRTWQDSDT"}, "B10": {"name": "TOR1AIP2 WT (peptide)", "chain": "DGAGRTWQDSDTVKLLVDLELSYG"}, "B11": {"name": "ETS1 WT (peptide)", "chain": "FSEPSFITESYQTLHPISSEELLS"}, "B12": {"name": "CDC14A WT (peptide)", "chain": "LNLAMVYRYCCKLNKKLKSYSLSR"}, "B13": {"name": "KRT13 WT (peptide)", "chain": "TSSASVTTTSNASGRRTSDVRRP"}, "B14": {"name": "KRT13 WT (peptide)", "chain": "TPGIDLTRVLAEMREQYEAMAERN"}, "B15": {"name": "KRT13 WT (peptide)", "chain": "YGGGLGGGFGGGFAGGFVDFGACD"}, "B16": {"name": "KRT13 WT (peptide)", "chain": "KTIEELRDKILTATIENNRVILEI"}, "B17": {"name": "TRIM63 WT (peptide)", "chain": "QRITQEQEKKLSFIEALIQQYQEQ"}, "B18": {"name": "ETS1 WT (peptide)", "chain": "YVRDRADLNKDKPVIPAAALAGYT"}, "B19": {"name": "SEPHS2 WT (peptide)", "chain": "KASGRFGLLQGTSAETSGGLLICL"}, "B20": {"name": "OR10K2 WT (peptide)", "chain": "SLARLQQLLFVIFLLLYLFTLGTN"}, "B21": {"name": "TRIM63 WT (peptide)", "chain": "QEKKLSFIEALIQQYQEQLDKSTK"}, "B22": {"name": "SLC19A2 WT (peptide)", "chain": "IYPVWTYSYLVLLFPVFLATDYLR"}, "B23": {"name": "TOR1AIP2 WT (peptide)", "chain": "SPGHSSAGQEGEDTLRRRLLAPEA"}, "B24": {"name": "SLC19A2 WT (peptide)", "chain": "FASLRPSEPFLTPYLLGPDKNLTE"}, "B25": {"name": "TOR1AIP2 WT (peptide)", "chain": "AGQEGEDTLRRRLLAPEAGSHPQQ"}, "B26": {"name": "CDC14A WT (peptide)", "chain": "LWVQGDIFRSKLKNRPSSEGSINK"}, "B27": {"name": "SLC19A2 WT (peptide)", "chain": "FHHIPSTCQRVNGIKVQNGGIVTD"}}, "test": "protein stability index of a GFP-peptide fusion (GPS, HEK-293T) (PSI 1-6); higher = more stable", "data": [{"protein": "B1", "values": [{"measurement": "protein stability index", "setting": "parent: IOH51997_53, c terminus: a fixed tail appended", "value": 3.46}]}, {"protein": "B2", "values": [{"measurement": "protein stability index", "setting": "parent: IOH45968_20, c terminus: a fixed tail appended", "value": 1.89}]}, {"protein": "B3", "values": [{"measurement": "protein stability index", "setting": "parent: IOH46617_33, c terminus: a fixed tail appended", "value": 2.25}]}, {"protein": "B4", "values": [{"measurement": "protein stability index", "setting": "parent: IOH45956_10, c terminus: a fixed tail appended", "value": 1.99}]}, {"protein": "B5", "values": [{"measurement": "protein stability index", "setting": "parent: IOH45937_2, c terminus: a fixed tail appended", "value": 2.96}]}, {"protein": "B6", "values": [{"measurement": "protein stability index", "setting": "parent: IOH51997_64, c terminus: a fixed tail appended", "value": 2.27}]}, {"protein": "B7", "values": [{"measurement": "protein stability index", "setting": "parent: IOH45956_13, c terminus: a fixed tail appended", "value": 1.95}]}, {"protein": "B8", "values": [{"measurement": "protein stability index", "setting": "parent: IOH52486_72, c terminus: a fixed tail appended", "value": 1.96}]}, {"protein": "B9", "values": [{"measurement": "protein stability index", "setting": "parent: IOH51997_54, c terminus: a fixed tail appended", "value": 3.33}]}, {"protein": "B10", "values": [{"measurement": "protein stability index", "setting": "parent: IOH51997_56, c terminus: a fixed tail appended", "value": 1.82}]}, {"protein": "B11", "values": [{"measurement": "protein stability index", "setting": "parent: IOH46473_30, c terminus: a fixed tail appended", "value": 1.94}]}, {"protein": "B12", "values": [{"measurement": "protein stability index", "setting": "parent: IOH46617_10, c terminus: a fixed tail appended", "value": 2.15}]}, {"protein": "B13", "values": [{"measurement": "protein stability index", "setting": "parent: IOH51951_76, c terminus: native", "value": 2.45}]}, {"protein": "B14", "values": [{"measurement": "protein stability index", "setting": "parent: IOH51951_45, c terminus: a fixed tail appended", "value": 3.68}]}, {"protein": "B15", "values": [{"measurement": "protein stability index", "setting": "parent: IOH51951_13, c terminus: a fixed tail appended", "value": 1.83}]}, {"protein": "B16", "values": [{"measurement": "protein stability index", "setting": "parent: IOH51951_27, c terminus: a fixed tail appended", "value": 2.97}]}, {"protein": "B17", "values": [{"measurement": "protein stability index", "setting": "parent: IOH45956_39, c terminus: a fixed tail appended", "value": 2.31}]}, {"protein": "B18", "values": [{"measurement": "protein stability index", "setting": "parent: IOH46473_52, c terminus: a fixed tail appended", "value": 2.15}]}, {"protein": "B19", "values": [{"measurement": "protein stability index", "setting": "parent: IOH46138_60, c terminus: a fixed tail appended", "value": 2.7}]}, {"protein": "B20", "values": [{"measurement": "protein stability index", "setting": "parent: IOH46300_4, c terminus: a fixed tail appended", "value": 2.15}]}, {"protein": "B21", "values": [{"measurement": "protein stability index", "setting": "parent: IOH45956_40, c terminus: a fixed tail appended", "value": 2.57}]}, {"protein": "B22", "values": [{"measurement": "protein stability index", "setting": "parent: IOH52104_13, c terminus: a fixed tail appended", "value": 2.89}]}, {"protein": "B23", "values": [{"measurement": "protein stability index", "setting": "parent: IOH51997_28, c terminus: a fixed tail appended", "value": 4.18}]}, {"protein": "B24", "values": [{"measurement": "protein stability index", "setting": "parent: IOH52104_8, c terminus: a fixed tail appended", "value": 2}]}, {"protein": "B25", "values": [{"measurement": "protein stability index", "setting": "parent: IOH51997_29, c terminus: a fixed tail appended", "value": 2.33}]}, {"protein": "B26", "values": [{"measurement": "protein stability index", "setting": "parent: IOH46617_56, c terminus: a fixed tail appended", "value": 2.28}]}, {"protein": "B27", "values": [{"measurement": "protein stability index", "setting": "parent: IOH52104_37, c terminus: a fixed tail appended", "value": 1.8}]}]}
